Results on eight molecules are retold here after patent US20260062463A1 (KANGYUAN BIOMEDICAL TECH DALIAN, published 2026).

Holding throughout (test): SPR, AAV amine-coupled to CM5 chip
On the technique in general: SPR reads the build-up and loss of mass on a sensor chip optically.

For one test, the target named is T1, AAV8 (adeno-associated virus 8, Assembled 60-mer capsid of VP1/VP2/VP3 (nested products of one cap gene), amine-coupled to a CM5 chip; the letters give one VP1 subunit only.).
T1 construct: also called adeno-associated virus serotype 8
T1 chain: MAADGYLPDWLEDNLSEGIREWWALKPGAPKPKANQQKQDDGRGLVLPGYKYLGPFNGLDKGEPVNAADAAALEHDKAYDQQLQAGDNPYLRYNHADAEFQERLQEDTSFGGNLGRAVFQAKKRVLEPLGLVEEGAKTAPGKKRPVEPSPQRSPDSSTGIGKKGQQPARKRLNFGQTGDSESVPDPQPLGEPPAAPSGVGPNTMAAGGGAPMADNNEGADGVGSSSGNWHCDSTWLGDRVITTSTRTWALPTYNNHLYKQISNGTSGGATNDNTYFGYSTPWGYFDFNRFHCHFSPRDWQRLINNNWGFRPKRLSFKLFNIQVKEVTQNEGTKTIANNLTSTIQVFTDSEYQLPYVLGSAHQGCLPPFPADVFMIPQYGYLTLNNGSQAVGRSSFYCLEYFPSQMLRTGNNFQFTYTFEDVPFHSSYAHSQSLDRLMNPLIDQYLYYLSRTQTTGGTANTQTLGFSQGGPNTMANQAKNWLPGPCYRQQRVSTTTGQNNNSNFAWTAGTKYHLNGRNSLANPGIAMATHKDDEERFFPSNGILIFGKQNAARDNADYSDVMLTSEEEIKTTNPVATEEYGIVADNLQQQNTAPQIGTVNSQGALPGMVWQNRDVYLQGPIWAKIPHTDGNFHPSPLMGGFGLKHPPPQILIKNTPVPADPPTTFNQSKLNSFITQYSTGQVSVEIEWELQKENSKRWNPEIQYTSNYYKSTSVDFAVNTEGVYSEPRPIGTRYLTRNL

The target in another test is T2, AAV9 (adeno-associated virus 9, Assembled 60-mer capsid of VP1/VP2/VP3 (nested products of one cap gene), amine-coupled to a CM5 chip; the letters give one VP1 subunit only.).
T2 construct: also called adeno-associated virus serotype 9

Another test concerns the target T3, AAV5 (adeno-associated virus 5, Assembled 60-mer capsid of VP1/VP2/VP3 (nested products of one cap gene), amine-coupled to a CM5 chip; the letters give one VP1 subunit only.).
T3 construct: also called adeno-associated virus serotype 5

For orientation: Kd means a measure of binding affinity in units of concentration. High values mean a looser complex, low ones a tighter complex. A word on the koff: it is a measure of how fast the partners let go of each other. Lower therefore signals a long-lived complex. Usually kon stands for the second-order rate constant of association. A low value points to slow association.

B1: A4-C2 (VHH)
chain: VQLQESGGGLVQPGGSLRLSCAASGSAFSINTMGWYRQAPGKQRELVASVTPGGSTNYADSVKGRFTISRDNAKNTIYLQMNSLRPEDTAVYYCHLDEVRESSWTTSNLWGQGTQVTVSSGGGGSGGGGSGGGGSVQLQESGGGLVQPGGSLRLSCAASGSAFSINTMGWYRQAPGKQRELVASVTPGGSTNYADSVKGRFTISRDNAKNTIYLQMNSLRPEDTAVYYCHLDEVRESSWTTSNLWGQGTQVTVSSGGGGSGGGGSGGGGSVQLQESGGGLVQPGGSLRLSCAASGSAFSINTMGWYRQAPGKQRELVASVTPGGSTNYADSVKGRFTISRDNAKNTIYLQMNSLRPEDTAVYYCHLDEVRESSWTTSNLWGQGTQVTVSS
For the molecule B1, in the test with AAV8, the Kd came to 0.359 nM, the koff was 5e-05 s⁻¹ and the on-rate constant (kon) was determined as 139000 M⁻¹ s⁻¹. In the test with AAV9, the equilibrium dissociation constant (Kd) amounted to 0.486 nM, the off-rate constant (koff) worked out at 0.000125 s⁻¹ and the kon worked out at 257000 M⁻¹ s⁻¹. In addition, in the test with AAV5, the dissociation constant (Kd) amounted to 0.691 nM, the dissociation rate constant (koff) worked out at 0.000134 s⁻¹ and the kon is 194000 M⁻¹ s⁻¹.

B2: A4-D2 (VHH)
chain: VQLQESGGGLVQAGGSLRLSCAASGRGFSINTMGWYRQAPGKQRELVAAVTRGGTTNYADSVKGRFTISRDNAKNTVYLQMNSLRPEDTAVYYCHVDEVRQSSWTTSNLWGQGTQVTVSSGGGGSGGGGSGGGGSVQLQESGGGLVQAGGSLRLSCAASGRGFSINTMGWYRQAPGKQRELVAAVTRGGTTNYADSVKGRFTISRDNAKNTVYLQMNSLRPEDTAVYYCHVDEVRQSSWTTSNLWGQGTQVTVSSGGGGSGGGGSGGGGSVQLQESGGGLVQAGGSLRLSCAASGRGFSINTMGWYRQAPGKQRELVAAVTRGGTTNYADSVKGRFTISRDNAKNTVYLQMNSLRPEDTAVYYCHVDEVRQSSWTTSNLWGQGTQVTVSSGGGGSGGGGSGGGGSVQLQESGGGLVQAGGSLRLSCAASGRGFSINTMGWYRQAPGKQRELVAAVTRGGTTNYADSVKGRFTISRDNAKNTVYLQMNSLRPEDTAVYYCHVDEVRQSSWTTSNLWGQGTQVTVSS
In the test with AAV8, B2 returned a Kd of 0.0821 nM, a koff of 3.6e-06 s⁻¹ and a kon of 43900 M⁻¹ s⁻¹. In the test with AAV9, this molecule registered a dissociation constant Kd of 0.304 nM, a koff of 9e-06 s⁻¹ and a kon of 29600 M⁻¹ s⁻¹. Besides, in the test with AAV5, the dissociation constant Kd came out at 0.0996 nM, the koff came out at 5.7e-06 s⁻¹ and the kon was found to be 57200 M⁻¹ s⁻¹.

B3: A4-C4 (bispecific antibody)
chain: VQLQESGGGLVQAGGSLRLSCAASGSRFSINTMGWYRQAPGKQREFVATVTRGGNTNYAESVKGRFTISRDNAKNTVYLQMNSLRPEDTAVYYCHVDEVRDSSWTTSNIWGQGTQVTVSSGGGGSGGGGSGGGGSVQLQESGGGLVQAGGSLRLSCAASGSRFSINTMGWYRQAPGKQREFVATVTRGGNTNYAESVKGRFTISRDNAKNTVYLQMNSLRPEDTAVYYCHVDEVRDSSWTTSNIWGQGTQVTVSSGGGGSGGGGSGGGGSVQLQESGGGLVQPGGSLRLSCAASGSNFRINTMGWYRQAPGKQRELVATVTRGGSTNYADSVKGRFTISRDNPKDTVYLQMNSLRPEDTAVYYCHVDEVRESSWTTSNLWGQGTQVTVSS
In the test with AAV8, B3 displayed a Kd of 2.36 nM, a koff of 0.00025 s⁻¹ and an on-rate (kon) of 106000 M⁻¹ s⁻¹. In the test with AAV9, this molecule displayed a Kd of 1.87 nM, a koff of 0.00031 s⁻¹ and an on-rate constant (kon) of 165000 M⁻¹ s⁻¹. In the test with AAV5, the dissociation constant Kd stood at 6.72 nM, the dissociation rate constant (koff) was found to be 0.00121 s⁻¹ and the on-rate constant (kon) was found to be 180000 M⁻¹ s⁻¹.

B4: A4-C9 (bispecific antibody)
chain: VQLQESGGGLVQPGGSLRLSCAASGSNFSINTMGWYRQAPGKQRELVATVTRGGDTNYADSVKGRFTISRDNAKNTVYLQMNSLRPEDTAVYYCHVDEIRESSWTTSNLWGQGTQVTVSSGGGGSGGGGSGGGGSVQLQESGGGLVQPGGSLRLSCAASGSNFSINTMGWYRQAPGKQRELVAALTRGGSTNYADSVKGRFTISRDNAKNTVYLQMNSLRPEDTAVYYCHVDEVRESSWTTSNLWGQGTQVTVSSGGGGSGGGGSGGGGSVQLQESGGGLVQPGGSLRLSCAASGSNFRINTMGWYRQAPGKQRELVAPVTRGGSTNYADSVKGRFTISRDNAKNTVYLQMNSLRPEDTAVYYCHVDEVRESSWTTSNLWGQGTQVTVSS
For B4, the figures for the Kd with AAV8, in the test with AAV9 and in the test with AAV5 were 1.14 nM, 0.669 nM and 0.777 nM, respectively. Moreover, the off-rate constant (koff) in the test with AAV8 amounted to 0.00013 s⁻¹; in the test with AAV9 it was 0.00013 s⁻¹; in the test with AAV5, 5e-05 s⁻¹. In addition, the kon with AAV8 came to 114000 M⁻¹ s⁻¹; with AAV9 it was 194000 M⁻¹ s⁻¹; in the test with AAV5 it was 64300 M⁻¹ s⁻¹.

B5: A4-C8 (bispecific antibody)
chain: VQLQESGGGLVQPGGSLRLSCAASGSNFRINTMGWYRQAPGKQRELVAPVTRGGSTNYADSVKGRFTISRDNAKNTVYLQMNSLRPEDTAVYYCHVDEVRESSWTTSNLWGQGTQVTVSSGGGGSGGGGSGGGGSVQLQESGGGLVQPGGSLRLSCAASGSNFSINTMGWYRQAPGKQRELVATVTRGGDTNYADSVKGRFTISRDNAKNTVYLQMNSLRPEDTAVYYCHVDEIRESSWTTSNLWGQGTQVTVSSGGGGSGGGGSGGGGSVQLQESGGGLVQPGGSLRLSCAASGSNFSINTMGWYRQAPGKQRELVAALTRGGSTNYADSVKGRFTISRDNAKNTVYLQMNSLRPEDTAVYYCHVDEVRESSWTTSNLWGQGTQVTVSS
As for B5, in the test with AAV8, the Kd stood at 2.81 nM, the off-rate constant (koff) worked out at 0.00037 s⁻¹ and the kon worked out at 132000 M⁻¹ s⁻¹. In the test with AAV9, this molecule returned a dissociation constant (Kd) of 0.279 nM, a koff of 5e-05 s⁻¹ and a kon of 179000 M⁻¹ s⁻¹. In the test with AAV5, this molecule showed a dissociation constant Kd of 0.69 nM, an off-rate (koff) of 0.00013 s⁻¹ and a kon of 188000 M⁻¹ s⁻¹.

B6: A4-C7 (bispecific antibody)
chain: VQLQESGGGLVQPGGSLRLSCAASGSNFSINTMGWYRQAPGKQRELVATVTRGGDTNYADSVKGRFTISRDNAKNTVYLQMNSLRPEDTAVYYCHVDEIRESSWTTSNLWGQGTQVTVSSGGGGSGGGGSGGGGSVQLQESGGGLVQPGGSLRLSCAASGSNFRINTMGWYRQAPGKQRELVAPVTRGGSTNYADSVKGRFTISRDNAKNTVYLQMNSLRPEDTAVYYCHVDEVRESSWTTSNLWGQGTQVTVSSGGGGSGGGGSGGGGSVQLQESGGGLVQPGGSLRLSCAASGSSFTINTMGWYRQAPGKQRELVAAVTRGGSTNYAGSVKGRFTISRDNAKNTIYLQMNSLRPEDTAVYYCHVDEIRQSSWTTSNLWGQGTQVTVSS
Consider B6, for which, in the test with AAV8, binding was characterised by a dissociation constant (Kd) of 3.7 nM, the off-rate constant (koff) is 0.00047 s⁻¹ and the kon came out at 127000 M⁻¹ s⁻¹. For the same molecule, in the test with AAV9, the Kd was 0.127 nM, the koff came out at 1.75e-05 s⁻¹ and the kon came out at 137000 M⁻¹ s⁻¹. In the test with AAV5, the Kd was 0.0732 nM, the koff was determined as 3.2e-05 s⁻¹ and the kon is 437000 M⁻¹ s⁻¹.

B7: A4-C5 (bispecific antibody)
chain: VQLQESGGGLVQPGGSLRLSCAASGSNFRINTMGWYRQAPGKQRELVATVTRGGSTNYADSVKGRFTISRDNPKNTVYLQMNSLRPEDTAVYYCHVDEVRESSWTTSNLWGQGTQVTVSSGGGGSGGGGSGGGGSVQLQESGGGLVQPGGSLRLSCAASGSNFSINTMGWYRQAPGKQRELVATVTRGGDTNYADSVKGRFTISRDNAKNTVYLQMNSLRPEDTAVYYCHVDEIRESSWTTSNLWGQGTQVTVSSGGGGSGGGGSGGGGSVQLQESGGGLVQPGGSLRLSCAASGSNFRINTMGWYRQAPGKQRELVATVTRGGSTNYADSVKGRFTISRDNPKNTVYLQMNSLRPEDTAVYYCHVDEVRESSWTTSNLWGQGTQVTVSS
On to B7, for which the Kd is 4.97 nM with AAV8, 1.68 nM with AAV9 and 7.86 nM with AAV5. For the same molecule, the off-rate constant (koff) with AAV8 was 0.00091 s⁻¹; with AAV9, 0.0002 s⁻¹; in the test with AAV5, 0.0013 s⁻¹. The on-rate constant (kon) with AAV8 is 183000 M⁻¹ s⁻¹; in the test with AAV9 it was 119000 M⁻¹ s⁻¹; with AAV5, 165000 M⁻¹ s⁻¹.

B8: A4-C6 (bispecific antibody)
chain: VQLQESGGGLVQPGGSLRLSCAASGSNFRINTMGWYRQAPGKQRELVAPVTRGGSTNYADSVKGRFTISRDNAKNTVYLQMNSLRPEDTAVYYCHVDEVRESSWTTSNLWGQGTQVTVSSGGGGSGGGGSGGGGSVQLQESGGGLVQPGGSLRLSCAASGSNFSINTMGWYRQAPGKQRELVAALTRGGSTNYADSVKGRFTISRDNAKNTVYLQMNSLRPEDTAVYYCHVDEVRESSWTTSNLWGQGTQVTVSSGGGGSGGGGSGGGGSVQLQESGGGLVQPGGSLRLSCAASGSNFSINTMGWYRQAPGKQRELVATVTRGGDTNYADSVKGRFTISRDNAKNTVYLQMNSLRPEDTAVYYCHVDEIRESSWTTSNLWGQGTQVTVSS
In the case of B8, in the test with AAV8, the equilibrium dissociation constant (Kd) is 2.67 nM, the koff was determined as 0.00044 s⁻¹ and the on-rate (kon) came to 165000 M⁻¹ s⁻¹. Moreover, in the test with AAV9, binding was characterised by a dissociation constant (Kd) of 0.55 nM, the koff came to 2.5e-05 s⁻¹ and the kon is 45400 M⁻¹ s⁻¹. In the test with AAV5, this molecule came in with a dissociation constant Kd of 0.785 nM, a koff of 0.000139 s⁻¹ and a kon of 177000 M⁻¹ s⁻¹.
